Test results taken from the supplement of paper PMC9732359.
± gives the uncertainty stated by the source.

Assay: protein stability index of a GFP-peptide fusion (yeast GPS) (PSI 1-4); higher = more stable; sorted into four equal gates, so the index is relative within each strain
Summary of the method: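 Plasmids in a pooled yeast library fused tiled 17-residue yeast protein peptides downstream of GFP and also expressed Cherry. Mid-log cultures grown without leucine were sorted into four equal gates by GFP/Cherry fluorescence ratio. Each gate's plasmids were PCR-amplified and Illumina-sequenced, and reads were matched to strains by barcodes. The protein stability index is derived by multiplying each gate's read frequency by its gate number and summing the results.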

| Sequence | protein stability index (doa10∆) | protein stability index (pdr5∆) | protein stability index (san1∆) | protein stability index (ubr1∆) |
| --- | --- | --- | --- | --- |
| DLVHIKDSLDNTFVTRL [RPS4A] | 2.79 ± 0.12 | 2.83 ± 0.091 | 3 ± 0.094 | 3.04 ± 0.058 |
| KIGEEDYGEEIKSGVAK [MTW1] | – | 2.93 ± 0.14 | – | 3.31 ± 0.12 |
| GSFKVVKGTNISEKDLV [RPO31] | 2.6 ± 0.27 | 3.36 ± 0.14 | 3.51 ± 0.044 | 3.5 ± 0.089 |
| LLVQKRFKYAPGTIVLY [RPS3] | 2.51 ± 0.12 | 1.87 ± 0.073 | 1.72 ± 0.13 | 1.31 ± 0.039 |
| RQLQYETLGDILKRDFE [ECM29] | 2.92 ± 0.075 | 3.36 ± 0.099 | 2.76 ± 0.095 | 3.02 ± 0.087 |
| NDITNLQLSKTPLSIKI [SRB8] | 2.58 ± 0.062 | 2.52 ± 0.069 | 2.81 ± 0.056 | 2.77 ± 0.051 |
| ISSLFTITTILILGLNT [YML103C/NUP188] | 1.51 ± 0.078 | 1.75 ± 0.094 | 1.46 ± 0.2 | 1.75 ± 0.065 |
| GRSRDGGLRFGEMERDC [RPB2] | 2.86 ± 0.29 | – | 2.83 ± 0.17 | – |
| QTIPIQIYGFEGLNQRN [YGR119C/NUP57] | 2.64 ± 0.27 | – | 2.52 ± 0.16 | 3.08 ± 0.18 |
| LNKSDLLDKYGKTGLSN [YML103C/NUP188] | 3.38 ± 0.12 | 3.17 ± 0.13 | 3.44 ± 0.058 | 3.38 ± 0.075 |
| MNGNSTNNEQLQQELAT [NUT2] | 3.2 ± 0.06 | 3.15 ± 0.075 | 3.1 ± 0.053 | 3.07 ± 0.062 |
| TDLRLSTNGLGMCQLYF [SNU114] | 3.48 ± 0.12 | 3.52 ± 0.13 | 2.98 ± 0.23 | 3.08 ± 0.21 |
| QWRYLYDTQLKVSPEEL [ARP7] | 1.98 ± 0.042 | 1.97 ± 0.042 | 2.08 ± 0.056 | 1.67 ± 0.049 |
| GNGNVSESDIINNLPPE [YCG1] | 2.85 ± 0.24 | 2.85 ± 0.13 | 2.95 ± 0.27 | 2.78 ± 0.15 |
| CKDDVQLQKILESLKPI [MTW1] | 3.11 ± 0.11 | 2.94 ± 0.089 | 2.79 ± 0.06 | 2.87 ± 0.07 |
| KVTKIWSKESNYDCKVI [PRP28] | 2.93 ± 0.1 | 2.47 ± 0.059 | 2.61 ± 0.051 | 2.97 ± 0.058 |
| RRWNKLCTLNDSKGSLY [YGL100W/SEH1] | 3.31 ± 0.078 | 3.24 ± 0.072 | 2.91 ± 0.078 | 3.1 ± 0.046 |
| DLVLQILEDTATMSVFL [RRI2] | 2.86 ± 0.063 | 2.36 ± 0.055 | 2.98 ± 0.054 | 2.71 ± 0.038 |
| SSLSAIIVFGYPESISN [YDL088C/ASM4] | 1.75 ± 0.067 | 1.88 ± 0.046 | 2.16 ± 0.086 | 2.01 ± 0.062 |
| LLKEKPNALKPLSESLR [RRP6] | 2.71 ± 0.059 | 2.83 ± 0.065 | 2.91 ± 0.077 | 2.94 ± 0.044 |
| EKKDDNSSKPAFSFGAK [YJL041W/NSP1] | 2.3 ± 0.054 | 1.86 ± 0.039 | 2.02 ± 0.06 | 2.25 ± 0.037 |
| LFLNNFVSRIPIMFQDF [IRR1] | 1.97 ± 0.057 | 2.04 ± 0.048 | 1.7 ± 0.067 | 1.85 ± 0.033 |
| SPEEQRSLLQEAIETCK [GAL11] | 1.88 ± 0.099 | 2.97 ± 0.13 | 2.63 ± 0.18 | 2.88 ± 0.069 |
| WKATYSNEFKCMSVITA [YGL100W/SEH1] | 1.87 ± 0.056 | 1.64 ± 0.051 | 1.51 ± 0.073 | 2.07 ± 0.032 |
| DTKNSKSESPSEVLVDT [ISW2] | 3.11 ± 0.082 | 3.12 ± 0.07 | 2.97 ± 0.082 | 3.27 ± 0.063 |
| DSVTTETGKLLSGLAQR [BRN1] | 2.5 ± 0.12 | 2.87 ± 0.099 | 2.66 ± 0.15 | 2.66 ± 0.072 |

| Sequence | protein stability index (doa10∆) | protein stability index (pdr5∆) | protein stability index (san1∆) | protein stability index (ubr1∆) |
| --- | --- | --- | --- | --- |
| DISATQLPKQLWRNFCR [ITC1] | 2.61 ± 0.054 | 2.68 ± 0.048 | 2.71 ± 0.035 | 2.8 ± 0.036 |
| NNGDKDHLKLVSLFSNL [YIL149C/MLP2] | 2.42 ± 0.09 | 2.67 ± 0.19 | 2.5 ± 0.26 | 2.44 ± 0.096 |
| SEDHSFRKVKLRVDEVQ [RPS1B] | 3.05 ± 0.094 | 2.96 ± 0.15 | 2.66 ± 0.091 | 3.1 ± 0.067 |
| LQVADKFFRVKYENKIS [SMC3] | 2.14 ± 0.073 | 2.3 ± 0.05 | 1.67 ± 0.092 | 1.52 ± 0.03 |
| PTPVVTISEKEQDILDL [SSN2] | 2.76 ± 0.1 | 2.02 ± 0.095 | 2.61 ± 0.12 | 2.73 ± 0.099 |
| EKVTRYNRHKLQELIVN [RPO31] | 1.74 ± 0.046 | 1.44 ± 0.043 | 1.82 ± 0.058 | 1.44 ± 0.041 |
| FPVDPTTPVKLGPGIYC [RRP40] | 2.41 ± 0.058 | 2.48 ± 0.056 | 2.4 ± 0.052 | 2.2 ± 0.047 |
| LIEFQPSQGVHYKVPTD [MED6] | 2.6 ± 0.066 | 2.98 ± 0.061 | 2.93 ± 0.062 | 2.93 ± 0.046 |
| EIRPEMLGHYLGEFSIT [RPS15] | – | 3.02 ± 0.08 | 3.11 ± 0.19 | 2.87 ± 0.17 |
| TGMSSMSPFLRKVVKPS [SRB4] | 2.76 ± 0.075 | 2.76 ± 0.088 | 1.97 ± 0.12 | 2.48 ± 0.049 |
| DVQKSSDSSSEDEVKVE [YLR335W/NUP2] | 2.7 ± 0.098 | 2.87 ± 0.092 | 2.69 ± 0.099 | 2.31 ± 0.044 |
| QVPQVRSMSGQPPTNVQ [SNF5] | 2.81 ± 0.05 | 3.03 ± 0.042 | 3.06 ± 0.037 | 2.95 ± 0.035 |
| GGLKSCDLDFPLRENTN [YDL116W/NUP84] | 2.59 ± 0.058 | 2.29 ± 0.059 | 2.25 ± 0.077 | 2.2 ± 0.057 |
| SNHNNLNLNNSELQPQN [SNF2] | 3.02 ± 0.044 | 2.7 ± 0.062 | 2.97 ± 0.051 | 2.81 ± 0.056 |
| EWQDIIHQREQELQIKR [CSE2] | – | 3.5 ± 0.17 | 3.29 ± 0.26 | 3.13 ± 0.23 |
| NESFNRRISSMPGGYFH [YAR002W/NUP60] | 2.88 ± 0.09 | 3.17 ± 0.089 | 3.07 ± 0.099 | 3.04 ± 0.043 |
| GQLLSVKFLVYQGVYSM [YML031W/NDC1] | 1.61 ± 0.084 | 1.75 ± 0.14 | 1.48 ± 0.11 | 1.98 ± 0.11 |
| FNTEAEQTVSAVTEATS [RGR1] | 2.67 ± 0.28 | 3.41 ± 0.15 | – | – |
| IRAQNFKSALANLEDII [RRP6] | 1.89 ± 0.06 | 1.75 ± 0.062 | 2.29 ± 0.091 | 1.41 ± 0.047 |
| RAKAMKFADGFLIHSGQ [RPS3] | 3.4 ± 0.11 | 3.03 ± 0.093 | 3.13 ± 0.061 | 3.22 ± 0.037 |
| PLVAHLGLYVGVDDQIL [YJL039C/NUP192] | 2.42 ± 0.074 | 2.85 ± 0.12 | 2.26 ± 0.11 | 1.48 ± 0.13 |
| KPTSPFIDSICKLFDKI [SRB8] | 1.56 ± 0.04 | 1.93 ± 0.035 | 1.56 ± 0.055 | 1.41 ± 0.034 |
| KEALQNNIFKEFTSKIG [SMC1] | 2.22 ± 0.064 | 2.3 ± 0.082 | 2.52 ± 0.11 | 2.24 ± 0.073 |
| INAQGEEIVVVASADYE [PRP8] | 2.91 ± 0.09 | 3.33 ± 0.096 | 2.78 ± 0.07 | 2.73 ± 0.04 |
| ELKPVSLDNKTLDDLVT [YJL041W/NSP1] | 3.12 ± 0.057 | 3.04 ± 0.063 | 3.09 ± 0.067 | 3.19 ± 0.042 |
| PVGACATSVESVDIGVE [FAS2] | 2.92 ± 0.13 | 2.9 ± 0.11 | 2.12 ± 0.085 | 2.86 ± 0.089 |
